Publication PMC10173331
Like-named read-outs stand apart in the source and are kept apart here.

Columns and labels:
[1] = molecular target: T1, clusterin (apolipoprotein J) (UniProt P10909 23-449); test: AuNP colorimetric aggregation assay
[2] = molecular target: T1, clusterin (apolipoprotein J); test: AuNP colorimetric aggregation assay; remark: listed apart in the source

T1 sequence (P10909 23-449): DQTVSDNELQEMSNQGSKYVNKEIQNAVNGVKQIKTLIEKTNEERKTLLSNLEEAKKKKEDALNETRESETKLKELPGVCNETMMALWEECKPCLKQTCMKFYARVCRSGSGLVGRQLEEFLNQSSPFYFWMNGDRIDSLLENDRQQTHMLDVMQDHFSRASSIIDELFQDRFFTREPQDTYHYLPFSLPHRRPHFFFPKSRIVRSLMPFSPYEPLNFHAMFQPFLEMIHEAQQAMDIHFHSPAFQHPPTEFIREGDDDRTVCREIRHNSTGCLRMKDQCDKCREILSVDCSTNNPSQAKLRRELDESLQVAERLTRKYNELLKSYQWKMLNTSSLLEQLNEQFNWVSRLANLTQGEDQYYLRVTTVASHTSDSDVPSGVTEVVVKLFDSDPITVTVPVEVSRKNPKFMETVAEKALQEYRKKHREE

B1: clusterin 1 (ssDNA)
DNA: CTCCTCTGACTGTAACCACGTTAGGCGAGAACATGTCAGTACGTCGACGTTCTACTTGCTGCATAGGTAGTCCAGAAGCC
binding result [1]: binds

CTCCTCTGACTGTAACCACGTTAGGCGAGAACATGTCAGT (ssDNA) [clusterin 2]
binding result [2]: binds
